From US20230398228A1, “ERIBULIN-BASED ANTIBODY-DRUG CONJUGATES AND METHODS OF USE” (EISAI R&D MANAGEMENT CO., LTD., priority 2016, published 2023)
Values joined by “and” are separate entries in the source; they are usually repeats but may differ in a detail not shown here. Equal values may be shown once.

Experiment: Maximum tolerated dose of MORAb-202 in CD-1 mice
Assay type: in vivo, mouse
Conditions: CD-1 mice
Method: Body weight was measured prior to dose on the dosing day, 24 hours post dose, and three times a week thereafter. […] Two weeks after dosing, the terminal body weight was measured and recorded. Euthanized mice at the end of the study (and if any mouse euthanized or found dead during the study) were processed for necropsy. Organs were examined for signs of tissue damage.

Substance: MORAb-003-maleimido-PEG2-Val-Cit-pAB-eribulin [MORAb-202]
- Body weight of individual mice (10 mg/kg single bolus i.v., day 0 post Rx): 22.60 g and 23.50 g and 21.80 g
- Body weight, group mean (10 mg/kg single bolus i.v., day 0 post injections): 22.6 g
- Body weight of individual mice (10 mg/kg single bolus i.v., day 1 post Rx): 22.80 g and 23.80 g
- Body weight, group mean (10 mg/kg single bolus i.v., day 1 post injections): 23.2 g
- Body weight of individual mice (10 mg/kg single bolus i.v., day 2 post Rx): 23.30 g and 24.00 g and 22.90 g
- Body weight, group mean (10 mg/kg single bolus i.v., day 2 post injections): 25.4 g
- Body weight of individual mice (10 mg/kg single bolus i.v., day 4 post Rx): 23.30 g (2×) and 23.90 g
- Body weight, group mean (10 mg/kg single bolus i.v., day 4 post injections): 23.5 g
- Body weight of individual mice (10 mg/kg single bolus i.v., day 7 post Rx): 24.80 g and 25.20 g and 24.90 g
- Body weight, group mean (10 mg/kg single bolus i.v., day 7 post injections): 25.0 g
- Body weight of individual mice (10 mg/kg single bolus i.v., day 9 post Rx): 24.90 g and 25.30 g and 25.00 g
- Body weight, group mean (10 mg/kg single bolus i.v., day 9 post injections): 25.1 g
- Body weight of individual mice (10 mg/kg single bolus i.v., day 11 post Rx): 24.30 g (2×) and 25.10 g
- Body weight, group mean (10 mg/kg single bolus i.v., day 11 post injections): 24.6 g
- Body weight of individual mice (10 mg/kg single bolus i.v., day 14 post Rx): 25.80 g and 25.60 g and 25.70 g
- Body weight, group mean (10 mg/kg single bolus i.v., day 14 post injections): 25.7 g
- Body weight of individual mice (20 mg/kg single bolus i.v., day 0 post Rx): 27.40 g and 26.20 g and 21.00 g
- Body weight, group mean (20 mg/kg single bolus i.v., day 0 post injections): 24.9 g
- Body weight of individual mice (20 mg/kg single bolus i.v., day 1 post Rx): 28.80 g and 27.50 g and 21.40 g
- Body weight, group mean (20 mg/kg single bolus i.v., day 1 post injections): 25.9 g
- Body weight of individual mice (20 mg/kg single bolus i.v., day 2 post Rx): 29.30 g and 29.00 g and 22.10 g
- Body weight, group mean (20 mg/kg single bolus i.v., day 2 post injections): 26.8 g
- Body weight of individual mice (20 mg/kg single bolus i.v., day 4 post Rx): 30.20 g and 31.00 g
- Body weight, group mean (20 mg/kg single bolus i.v., day 4 post injections): 28.1 g
- Body weight of individual mice (20 mg/kg single bolus i.v., day 7 post Rx): 29.60 g and 32.00 g and 24.00 g
- Body weight, group mean (20 mg/kg single bolus i.v., day 7 post injections): 28.5 g
- Body weight of individual mice (20 mg/kg single bolus i.v., day 9 post Rx): 30.80 g and 31.70 g and 23.40 g
- Body weight, group mean (20 mg/kg single bolus i.v., day 9 post injections): 28.6 g
- Body weight of individual mice (20 mg/kg single bolus i.v., day 11 post Rx): 31.00 g and 32.40 g and 23.80 g
- Body weight, group mean (20 mg/kg single bolus i.v., day 11 post injections): 29.1 g
- Body weight of individual mice (20 mg/kg single bolus i.v., day 14 post Rx): 33.20 g and 32.40 g and 24.10 g
- Body weight, group mean (20 mg/kg single bolus i.v., day 14 post injections): 29.9 g
- Body weight of individual mice (40 mg/kg single bolus i.v., day 0 post Rx): 23.80 g and 23.30 g and 21.70 g
- Body weight, group mean (40 mg/kg single bolus i.v., day 0 post injections): 22.9 g
- Body weight of individual mice (40 mg/kg single bolus i.v., day 1 post Rx): 23.60 g and 23.50 g and 21.60 g
- Body weight, group mean (40 mg/kg single bolus i.v., day 1 post injections): 22.9 g
- Body weight of individual mice (40 mg/kg single bolus i.v., day 2 post Rx): 23.60 g and 24.60 g and 21.80 g
- Body weight, group mean (40 mg/kg single bolus i.v., day 2 post injections): 23.3 g
- Body weight of individual mice (40 mg/kg single bolus i.v., day 4 post Rx): 24.40 g and 24.10 g and 22.70 g
- Body weight, group mean (40 mg/kg single bolus i.v., day 4 post injections): 23.7 g
